Laboratory results taken from the nanobody polyreactivity screen of Harvey et al. (2022).

Assay: yeast display, Sf9 membrane polyspecificity reagent, FACS + sequencing; frameworks hold sequencing errors
In short: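 Using colony PCR, genes from sorted yeast display clones were amplified, then sequenced on MiSeq at 2 × 250 and filtered by CDR length. The clones had been stained with 10% biotinylated, detergent-solubilized Sf9 membrane reagent for 1 hour at 4 °C and sorted by FACS into low and high (top ~1%) gates on anti-HA and streptavidin fluorescence. Polyreactivity labels come from the gate of origin.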

Which “polyreactivity (PSR sort gate)” value does the source give for “QVQLVESGGGLVQAGGSLRLSCAASGRTFPYNAMGWYRQAPGKERELVAAITQSAGRTYYADSVKGRFTISRDTAKYTVYFQMNSLKPEDTAVYYCNTVTVAYGYTRLYAQYYYWGQGTQVTVSS” here?
Its value is “high polyreactivity”.

With “QVQLVESGGGLVQAGGSLRLSCAASGRTFPYNAMGWYRQAPGKERELVAAITWRGGRTYYADSVKGRFTISRDYAKNTVYLQMNSLKPEDSAVYYCATVRVSRVRPFWNVWRSNYWGQGTQVTVSS” as the sequence, how does the “polyreactivity (PSR sort gate)” value read?
The value was “high polyreactivity”.

With “QVQLVESGGGLVQAGGSLRLSCAASGRTFPYYAMGWYRQAPGKERELVAAIRGTAGNTYYADSVKGRFTISRDNAKNTVYLQMNSLKPEDTAVYYCAKGRPYWSPLTGYNYWGQGTQVTVSS” as the sequence, how does the “polyreactivity (PSR sort gate)” value read?
Its value is “low polyreactivity”.

For “QVQLVESGGGLVQAGGSLRLSCAASGRTFPYYAMGWYRQAPGKERELVAAISSSGGRTYYADSVKGRFTISRDNAKNTVYLQMNSLKPEDTAVYYRNVDAWYPYQGFLVGYYYWGQGTQVTVSS”, which “polyreactivity (PSR sort gate)” value is on record?
The value was “low polyreactivity”.

Which “polyreactivity (PSR sort gate)” value does the source give for “QVQLVESGGGLVQAGGSLRLSCAASGRTFPYYAMGWYRQAPGKERELVAAITTNDGDTYYADSVKGRFTISRDNAKNTVYLQMNSLKPEDTAVYYCAADSGSTSEYEYWGQGTQVTVSS” here?
Its value is “low polyreactivity”.

Which “polyreactivity (PSR sort gate)” value does the source give for “QVQLVESGGGLVQAGGSLRLSCAASGRTFPYYVMGWYRQAPGKERELVAAIRRTGGSTYYADSLKGRFTISRDNAKNTVYLQMNSLKPEDTAVYYCTKRHSILYEGGYDYWGQGTQVTVSS” here?
Its value is “low polyreactivity”.

With “QVQLVESGGGLVQAGGSLRLSCAASGRTFQFYAMGWYRKAPGKEREFVAAIDLRGGSTYYADSVKGRFTISRDNAKNRVYLQMNSLKPEDTAVYYCNATRSKFGYFYRYDYWGQGTQVTVSS” as the sequence, how does the “polyreactivity (PSR sort gate)” value read?
Its value is “low polyreactivity”.

Which “polyreactivity (PSR sort gate)” value does the source give for “QVQLVESGGGLVQAGGSLRLSCAASGRTFQFYPMGWYRQAPGKERELVAAIDLRGGSTYYADSVKGRFTISRDNAKNTVYLQMNSLKPEDTAVYYCNADRYTGRDGEQSLDYWGQGTQVTVSS” here?
Its value is “low polyreactivity”.

For “QVQLVESGGGLVQAGGSLRLSCAASGRTFQFYVMGWYRQAPGKERELVASIRSGGSTNYADSVKGRFTISRDNAKNTVYLQMNSLKPEDTAVYYCAARVASPYYRYDYWGQGTQVTVSS”, which “polyreactivity (PSR sort gate)” value is on record?
Its value is “low polyreactivity”.

Which “polyreactivity (PSR sort gate)” value does the source give for “QVQLVESGGGLVQAGGSLRLSCAASGRTFQINGMGWYRQAPGKERELVAAITRSGGITYYADSVKGRFTISRDNAKNTVYLQMNSLKPEDTAVYYCNADSYAYYSWYDYWGQGTQVTVSS” here?
The value was “low polyreactivity”.

With “QVQLVESGGGLVQAGGSLRLSCAASGRTFQLYAMGWYRQAPGKERELVAAITTRADRTYYADSVKGRFTISRDNAKNTVYLQLNSVKPEDTAVYYCAASYSRTYFREDYCGQGTQVTVSS” as the sequence, how does the “polyreactivity (PSR sort gate)” value read?
The value was “low polyreactivity”.

Which “polyreactivity (PSR sort gate)” value does the source give for “QVQLVESGGGLVQAGGSLRLSCAASGRTFQRNAMGWYRQAPGKERELVAAISGGGSTYYADSVKGRFTISRDNAKNTVYLQMNSLKPEDTAVYYCAARSATRLYYFSRGYDYWGQGTQVTVSS” here?
Its value is “low polyreactivity”.

Which “polyreactivity (PSR sort gate)” value does the source give for “QVQLVESGGGLVQAGGSLRLSCAASGRTFQSNARGRARQAPGKETELVATISSDGSTYYADSVKGRFTISRDNAKNTVYLQMNSLKPEDTAVYYCAADSHPASTIGVRLDSWGQGTQVTVSS” here?
The value was “low polyreactivity”.

With “QVQLVESGGGLVQAGGSLRLSCAASGRTFQTNVMGWYRQAPGEERELVAAITLSGGSTNYADSVKGRFSISRDNAMYTVYLQMNSLKPEDTAVYYCNAERRYRHQWTPHYEYDYWGQGTQVTVSS” as the sequence, how does the “polyreactivity (PSR sort gate)” value read?
Its value is “low polyreactivity”.

For “QVQLVESGGGLVQAGGSLRLSCAASGRTFQVYAMGWYRQAPGKERELVAAISLTGGGTYYADSVKGRFTISRDNAKNTVYLQMNSLKPEDTEVYYCAVRRRTHLGFLYEYWGQGTQVTVSS”, which “polyreactivity (PSR sort gate)” value is on record?
The value was “high polyreactivity”.

For “QVQLVESGGGLVQAGGSLRLSCAASGRTFRANAMGWSRQAAGKERELVAAITWDGGSTYYADSVKGRFTISRDNAKNTVYLQMNSLKPEDTAVYYCAAESWFLRWYRYDYWGQGTQVTVSS”, which “polyreactivity (PSR sort gate)” value is on record?
The value was “low polyreactivity”.

With “QVQLVESGGGLVQAGGSLRLSCAASGRTFRANAMGWYRQAPGKERELFAAISYSGGRTRYADSVKGRFTISRDNAKNTVYLQMNSLKPEDTAVYYCNRVIPTQSLRDAPGLHQVGYWGQGTQVTVSS” as the sequence, how does the “polyreactivity (PSR sort gate)” value read?
The value was “high polyreactivity”.

For “QVQLVESGGGLVQAGGSLRLSCAASGRTFRANTMGWYRQAPGKERELVAAISDRGGSTYYADSVKGRFTISRDNAKNTVYLQMNSLKPEDTAVYYCAARNTPAQLDYWGQGTQVTVSS”, which “polyreactivity (PSR sort gate)” value is on record?
The value was “low polyreactivity”.

For “QVQLVESGGGLVQAGGSLRLSCAASGRTFRAYAMGWYRQAPGKERELVAAISGTGDRTYYADSVKGRFTISRDYAKNTVYLQMNSLKPEDTAVYYCAVSYSYRYYYWGQGTQVTVSS”, which “polyreactivity (PSR sort gate)” value is on record?
Its value is “high polyreactivity”.

For “QVQLVESGGGLVQAGGSLRLSCAASGRTFRAYAMGWYRQAPGKERELVAAITSGGSTKYADSVKGRFTITRDNAKNTVYLLMNSLKPEDTAVYYCAAVWYGYYSFDTYGYWGQGTQVTVSS”, which “polyreactivity (PSR sort gate)” value is on record?
Its value is “high polyreactivity”.

With “QVQLVESGGGLVQAGGSLRLSCAASGRTFRAYAMGWYRQAPGKERELVARISWSGGNTYYADSVKGRFTISRDNAKNTVYLQMNSLKPEDTAVYYCAKTYYPYPAQIYTGYSWGQGTQVTVSS” as the sequence, how does the “polyreactivity (PSR sort gate)” value read?
Its value is “low polyreactivity”.

For “QVQLVESGGGLVQAGGSLRLSCAASGRTFRAYTMGWYRQAPGKERELVAAISTPGGSTYYADSVKGRFTISRDNAKNTVYLQMNSLKPEDTAVYYCAAGTFYYWLSYDYWGQGTQVTVSS”, which “polyreactivity (PSR sort gate)” value is on record?
The value was “low polyreactivity”.

Which “polyreactivity (PSR sort gate)” value does the source give for “QVQLVESGGGLVQAGGSLRLSCAASGRTFRDNVMGWYRQAPGKERELVAAITWSSGSTHYADSVKGRFTISRDNAKNTVYLQMNSLKPEDTAVYYCAQKYGARTKYWEGWNVRYDYWGQGTQVTVSS” here?
Its value is “low polyreactivity”.

For “QVQLVESGGGLVQAGGSLRLSCAASGRTFRDYVMGWYRQAPGKERELVAVISYRGSTYYADSVKGRFTISRDNAKNTVYLQMNSVKPEDTAVYYCAGRFSLEGGYYWGQGTQVTVSS”, which “polyreactivity (PSR sort gate)” value is on record?
The value was “low polyreactivity”.

Which “polyreactivity (PSR sort gate)” value does the source give for “QVQLVESGGGLVQAGGSLRLSCAASGRTFRENAMGWYRQAPGKERELVAAAISSGDGTNYADSVKGRFTISRDNAKNTVYLQMNSLKPEDTAVYYCAADGPRDSYDYWGQGTQVTVSS” here?
The value was “low polyreactivity”.

For “QVQLVESGGGLVQAGGSLRLSCAASGRTFRENAMGWYRQAPGKERELVAAIRRSGGRTYYADSVKGRFTISRDNAKNTVYLQMNSLKPEDTAVYYCNAVADGYAFRRPYVTYYYWGQGTQVTVSS”, which “polyreactivity (PSR sort gate)” value is on record?
The value was “low polyreactivity”.

With “QVQLVESGGGLVQAGGSLRLSCAASGRTFRFNAMGWYRPAPGKEREFVAAITSGGGTYYADSVKGRFTISRDNAKNTVYLQMNSLKPEDTAVYYCATVGIVHHRLVAMDYWGQGTQVTVSS” as the sequence, how does the “polyreactivity (PSR sort gate)” value read?
The value was “low polyreactivity”.

For “QVQLVESGGGLVQAGGSLRLSCAASGRTFRFNAMGWYRQAPGKEMELVAAISSGGRTYYADSVKGRFTISRDNAKNTVYLQMNSLKPEDTAVYYCAARVFVRHPHQVAYDYWGQGTQVTVSS”, which “polyreactivity (PSR sort gate)” value is on record?
The value was “high polyreactivity”.

Which “polyreactivity (PSR sort gate)” value does the source give for “QVQLVESGGGLVQAGGSLRLSCAASGRTFRFYAMGWYRQAPGKEREFVAAISRSVGSTYYADSVKGRFTISRDNAKNTVDLQMNSLKPEDTAVYYCNADYRSRYVEYDYWGQGTQVTVSS” here?
The value was “high polyreactivity”.

Which “polyreactivity (PSR sort gate)” value does the source give for “QVQLVESGGGLVQAGGSLRLSCAASGRTFRFYTMGWYRQAPGKERELVAAIYWRGSSTYYADSVKGRFTISRDNAKNTVYLQMNSLKPEDTAVYYFAKKSYANEYDYWGQGTQVTVSS” here?
The value was “high polyreactivity”.

With “QVQLVESGGGLVQAGGSLRLSCAASGRTFRGNDMGWYRQAPGKERELVATITRNGGSTRYADSVKGRFTISRDNAKNTVYLQMNSLKPEDTAVYYCNARSRYFGYDYWGQGTQVTVSS” as the sequence, how does the “polyreactivity (PSR sort gate)” value read?
The value was “high polyreactivity”.
